Like-named read-outs stand apart in the source and are kept apart here.
What was measured:
CXCL12 [1] = target: T1, CXCL12 (UniProt P48061 22-93); experiment: graphene field-effect transistor array
CXCL12 [2] = target: T1, CXCL12; experiment: graphene field-effect transistor array; remark: listed apart in the source

T1 sequence (P48061 22-93): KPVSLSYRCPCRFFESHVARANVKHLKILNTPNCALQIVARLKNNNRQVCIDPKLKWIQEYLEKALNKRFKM

B1: CXCR4^QTY-Fc (Fc fusion)
chain: PSTCSKPTCPPPELLGGPSVFIFPPKPKDTLMISRTPEVTCVVVDVSQDDPEVQFTWYINNEQVRTARPPLREQQFNSTIRVVSTLPITHQDWLRGKEFKCKVHNKALPAPIEKTISKARGQPLEPKVYTMGPPREELSSRSVSLTCMINGFYPSDISVEWEKNGKAEDNYKTTPAVLDSDGSYFLYNKLSVPTSEWQRGDVFTCSVMHEALHNHYTQKSISRSPGK
modifications: RED-NHS fluorescent label (Monolith NT Protein Labeling Kit RED-NHS), in the MST only
B1 showed a Kd (CXCL12 [1]) of 24.8 ± 13 nM and a Kd (CXCL12 [2]) of 20.1 ± 9.1 nM.
